From US20180127500A1 (ANAPTYSBIO, published 2018) come the findings set out here.

One assay has as its target T1, Cyno TIM-3 (cynomolgus monkey, UniProt A0A2K5U3G7 22-294).
T1 construct: The construct used for BIACORE is not described; also called cynomolgus monkey TIM-3
T1 sequence: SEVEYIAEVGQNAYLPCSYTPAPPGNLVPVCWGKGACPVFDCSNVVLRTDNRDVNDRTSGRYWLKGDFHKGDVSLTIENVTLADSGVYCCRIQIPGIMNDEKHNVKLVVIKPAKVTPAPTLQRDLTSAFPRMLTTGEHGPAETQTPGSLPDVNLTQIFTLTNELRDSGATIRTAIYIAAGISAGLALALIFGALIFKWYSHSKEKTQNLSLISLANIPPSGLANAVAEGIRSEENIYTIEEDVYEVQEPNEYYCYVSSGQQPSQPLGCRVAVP
The experiment in a line: BIACORE (SPR). For orientation: In SPR one partner is held on a chip, and binding of the other changes the refractive index at the surface.

A further assay concerns the target T2, Human TIM-3 (human, UniProt Q8TDQ0 22-200, limits assumed).
T2 construct: The construct used for BIACORE is not described; also called T Cell Immunoglobulin and Mucin Protein 3; HAVCR2
T2 sequence (looked up): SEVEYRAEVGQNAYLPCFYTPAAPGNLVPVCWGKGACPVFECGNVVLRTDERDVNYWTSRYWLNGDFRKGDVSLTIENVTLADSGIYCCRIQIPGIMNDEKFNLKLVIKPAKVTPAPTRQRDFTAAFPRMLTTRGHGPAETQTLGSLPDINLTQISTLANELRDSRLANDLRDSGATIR
The assay can be described thus: BIACORE (SPR).

B1: APE5137 (antibody, V domains shown)
VH: EVQLLESGGGLVQPGGSLRLSCAAASGFTFSSYDMSWVRQAPGKGLDWVSTISGGGTYTYYQDSVKGRFTISRDNSKNTLYLQMNSLRAEDTAVYYCASMDYWGQGTTVTVSS
VL: DIQMTQSPSSLSASVGDRVTITCRASQSIRRYLNWYHQKPGKAPKLLIYGASTLQSGVPSRFSGSGSGTDFTLTISSLQPEDFAVYYCQQSHSAPLTFGGGTKVEIKR
notes: also called Lead Antibody; lead anti-TIM-3 antibody
Broadly, the Kd is a measure of binding affinity in units of concentration. Low readings indicate tighter binding, high ones weaker binding. In the case of B1, the Kd with Cyno TIM-3 is 0.19 nM; with Human TIM-3, 0.05 nM.

B2: APE5121 (antibody, V domains shown)
VH: EVQVLESGGGLVQPGGSLRLYCVASGFTFSGSYAMSWVRQAPGKGLEWVSAISGSGGSTYYADSVKGRFTISRDNSKNTLYLQMNSLRAEDTAVYYCAKKYYVGPADYWGQGTLVTVSS
VL: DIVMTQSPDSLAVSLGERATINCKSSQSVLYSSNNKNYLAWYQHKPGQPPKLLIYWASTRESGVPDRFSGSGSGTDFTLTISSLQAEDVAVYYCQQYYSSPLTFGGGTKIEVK
notes: also called Back-Up Antibody
With B2, the values for the dissociation constant (Kd) with Cyno TIM-3 and with Human TIM-3 were 1.5 nM and less than 0.05 nM, respectively.
